Experimental findings from patent publication US20140087995A1 (published 2014) are described below.

For orientation: IC50 means the point on the concentration scale where inhibition reaches its midpoint.

The labels stand for the following.
T1: human calcitonin receptor (human, UniProt P30988 25-474)
T1 construct: whole, on cells; Used as cell membranes; also called hCTR; hCT
T1 sequence (looked up): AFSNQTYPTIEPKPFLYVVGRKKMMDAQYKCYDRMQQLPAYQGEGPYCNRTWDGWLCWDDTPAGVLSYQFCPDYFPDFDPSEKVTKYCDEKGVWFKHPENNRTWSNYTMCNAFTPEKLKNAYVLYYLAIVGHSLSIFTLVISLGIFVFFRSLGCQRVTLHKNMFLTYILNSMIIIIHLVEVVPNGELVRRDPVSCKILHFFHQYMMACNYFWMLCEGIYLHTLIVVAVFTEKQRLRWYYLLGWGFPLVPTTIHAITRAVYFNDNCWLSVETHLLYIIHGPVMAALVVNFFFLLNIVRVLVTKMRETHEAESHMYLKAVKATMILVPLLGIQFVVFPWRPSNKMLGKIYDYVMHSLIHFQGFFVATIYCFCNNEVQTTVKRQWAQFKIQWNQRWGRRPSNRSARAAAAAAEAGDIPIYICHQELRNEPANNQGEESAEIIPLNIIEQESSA

B1: N^ε1-[2-[2-[2-[[(4S)-4-carboxy-4-(19-carboxynonadecanoylamino)butanoyl]amino]ethoxy]ethoxy]acetyl]-[Arg17,Pro21,Pro27,His34]-h-amylin (peptide)
peptide: K([AEEA-γGlu-C20 diacid])CNTATCATQRLANFLRHSSPNFGAIPSSTNVGHNTY-NH2
modifications: disulfide 2-7; N-terminus assumed
SMILES: CC[C@H](C)[C@H](NC(=O)[C@H](C)NC(=O)CNC(=O)[C@H](Cc1ccccc1)NC(=O)[C@H](CC(N)=O)NC(=O)[C@@H]1CCCN1C(=O)[C@H](CO)NC(=O)[C@H](CO)NC(=O)[C@H](Cc1c[nH]cn1)NC(=O)[C@H](CCCNC(=N)N)NC(=O)[C@H](CC(C)C)NC(=O)[C@H](Cc1ccccc1)NC(=O)[C@H](CC(N)=O)NC(=O)[C@H](C)NC(=O)[C@H](CC(C)C)NC(=O)[C@H](CCCNC(=N)N)NC(=O)[C@H](CCC(N)=O)NC(=O)[C@@H](NC(=O)[C@H](C)NC(=O)[C@@H]1CSSC[C@H](NC(=O)[C@@H](N)CCCCNC(=O)COCCOCCNC(=O)CC[C@H](NC(=O)CCCCCCCCCCCCCCCCCCC(=O)O)C(=O)O)C(=O)N[C@@H](CC(N)=O)C(=O)N[C@@H]([C@@H](C)O)C(=O)N[C@@H](C)C(=O)N[C@@H]([C@@H](C)O)C(=O)N1)[C@@H](C)O)C(=O)N1CCC[C@H]1C(=O)N[C@@H](CO)C(=O)N[C@@H](CO)C(=O)N[C@H](C(=O)N[C@@H](CC(N)=O)C(=O)N[C@H](C(=O)NCC(=O)N[C@@H](Cc1c[nH]cn1)C(=O)N[C@@H](CC(N)=O)C(=O)N[C@H](C(=O)N[C@@H](Cc1ccc(O)cc1)C(N)=O)[C@@H](C)O)C(C)C)[C@@H](C)O
notes: also called compound 76
B2: N^ε1-[2-[2-[2-[[2-[2-[2-[[(4S)-4-carboxy-4-(19-carboxynonadecanoylamino)butanoyl]amino]ethoxy]ethoxy]acetyl]amino]ethoxy]ethoxy]acetyl]-[Arg17,Pro21,Pro27,Pro31 … (peptide)
peptide: K([AEEA-AEEA-γGlu-C20 diacid])CNTATCATQRLANFLRHSSPNFGAIPSSTPVGSNTY-NH2
modifications: disulfide 2-7; N-terminus assumed
SMILES: CC[C@H](C)[C@H](NC(=O)[C@H](C)NC(=O)CNC(=O)[C@H](Cc1ccccc1)NC(=O)[C@H](CC(N)=O)NC(=O)[C@@H]1CCCN1C(=O)[C@H](CO)NC(=O)[C@H](CO)NC(=O)[C@H](Cc1c[nH]cn1)NC(=O)[C@H](CCCNC(=N)N)NC(=O)[C@H](CC(C)C)NC(=O)[C@H](Cc1ccccc1)NC(=O)[C@H](CC(N)=O)NC(=O)[C@H](C)NC(=O)[C@H](CC(C)C)NC(=O)[C@H](CCCNC(=N)N)NC(=O)[C@H](CCC(N)=O)NC(=O)[C@@H](NC(=O)[C@H](C)NC(=O)[C@@H]1CSSC[C@H](NC(=O)[C@@H](N)CCCCNC(=O)COCCOCCNC(=O)COCCOCCNC(=O)CC[C@H](NC(=O)CCCCCCCCCCCCCCCCCCC(=O)O)C(=O)O)C(=O)N[C@@H](CC(N)=O)C(=O)N[C@@H]([C@@H](C)O)C(=O)N[C@@H](C)C(=O)N[C@@H]([C@@H](C)O)C(=O)N1)[C@@H](C)O)C(=O)N1CCC[C@H]1C(=O)N[C@@H](CO)C(=O)N[C@@H](CO)C(=O)N[C@H](C(=O)N1CCC[C@H]1C(=O)N[C@H](C(=O)NCC(=O)N[C@@H](CO)C(=O)N[C@@H](CC(N)=O)C(=O)N[C@H](C(=O)N[C@@H](Cc1ccc(O)cc1)C(N)=O)[C@@H](C)O)C(C)C)[C@@H](C)O
notes: also called compound 96
B3: N^ε1-[2-[2-[2-(19-carboxynonadecanoylamino)ethoxy]ethoxy]acetyl]-[His14,Arg17,Pro21,Pro27]-h-amylin (peptide)
peptide: K([AEEA-C20 diacid])CNTATCATQRLAHFLRHSSPNFGAIPSSTNVGSNTY-NH2
modifications: disulfide 2-7; N-terminus assumed
SMILES: CC[C@H](C)[C@H](NC(=O)[C@H](C)NC(=O)CNC(=O)[C@H](Cc1ccccc1)NC(=O)[C@H](CC(N)=O)NC(=O)[C@@H]1CCCN1C(=O)[C@H](CO)NC(=O)[C@H](CO)NC(=O)[C@H](Cc1c[nH]cn1)NC(=O)[C@H](CCCNC(=N)N)NC(=O)[C@H](CC(C)C)NC(=O)[C@H](Cc1ccccc1)NC(=O)[C@H](Cc1c[nH]cn1)NC(=O)[C@H](C)NC(=O)[C@H](CC(C)C)NC(=O)[C@H](CCCNC(=N)N)NC(=O)[C@H](CCC(N)=O)NC(=O)[C@@H](NC(=O)[C@H](C)NC(=O)[C@@H]1CSSC[C@H](NC(=O)[C@@H](N)CCCCNC(=O)COCCOCCNC(=O)CCCCCCCCCCCCCCCCCCC(=O)O)C(=O)N[C@@H](CC(N)=O)C(=O)N[C@@H]([C@@H](C)O)C(=O)N[C@@H](C)C(=O)N[C@@H]([C@@H](C)O)C(=O)N1)[C@@H](C)O)C(=O)N1CCC[C@H]1C(=O)N[C@@H](CO)C(=O)N[C@@H](CO)C(=O)N[C@H](C(=O)N[C@@H](CC(N)=O)C(=O)N[C@H](C(=O)NCC(=O)N[C@@H](CO)C(=O)N[C@@H](CC(N)=O)C(=O)N[C@H](C(=O)N[C@@H](Cc1ccc(O)cc1)C(N)=O)[C@@H](C)O)C(C)C)[C@@H](C)O
notes: also called compound 90
B4: N^ε1-[2-[2-[2-[[2-[2-[2-[[(4S)-4-carboxy-4-(19-carboxynonadecanoylamino)butanoyl]amino]ethoxy]ethoxy]acetyl]amino]ethoxy]ethoxy]acetyl]-[Arg17,Pro21,Pro27,Pro34 … (peptide)
peptide: K([AEEA-AEEA-γGlu-C20 diacid])CNTATCATQRLANFLRHSSPNFGAIPSSTNVGPNTY-NH2
modifications: disulfide 2-7; N-terminus assumed
SMILES: CC[C@H](C)[C@H](NC(=O)[C@H](C)NC(=O)CNC(=O)[C@H](Cc1ccccc1)NC(=O)[C@H](CC(N)=O)NC(=O)[C@@H]1CCCN1C(=O)[C@H](CO)NC(=O)[C@H](CO)NC(=O)[C@H](Cc1c[nH]cn1)NC(=O)[C@H](CCCNC(=N)N)NC(=O)[C@H](CC(C)C)NC(=O)[C@H](Cc1ccccc1)NC(=O)[C@H](CC(N)=O)NC(=O)[C@H](C)NC(=O)[C@H](CC(C)C)NC(=O)[C@H](CCCNC(=N)N)NC(=O)[C@H](CCC(N)=O)NC(=O)[C@@H](NC(=O)[C@H](C)NC(=O)[C@@H]1CSSC[C@H](NC(=O)[C@@H](N)CCCCNC(=O)COCCOCCNC(=O)COCCOCCNC(=O)CC[C@H](NC(=O)CCCCCCCCCCCCCCCCCCC(=O)O)C(=O)O)C(=O)N[C@@H](CC(N)=O)C(=O)N[C@@H]([C@@H](C)O)C(=O)N[C@@H](C)C(=O)N[C@@H]([C@@H](C)O)C(=O)N1)[C@@H](C)O)C(=O)N1CCC[C@H]1C(=O)N[C@@H](CO)C(=O)N[C@@H](CO)C(=O)N[C@H](C(=O)N[C@@H](CC(N)=O)C(=O)N[C@H](C(=O)NCC(=O)N1CCC[C@H]1C(=O)N[C@@H](CC(N)=O)C(=O)N[C@H](C(=O)N[C@@H](Cc1ccc(O)cc1)C(N)=O)[C@@H](C)O)C(C)C)[C@@H](C)O
notes: also called compound 98

Numbered stars: 1 amine (or outer) side, 2 acyl side, 3 side chain; on linkers, the order of the positions; unused ones are H or OH. Bridge positions count the residues as written; N and C are the ends. Side chains are listed from the residue outwards. Ends that are not written are not given here. * marks the point of attachment. C20 diacid = O=C(O)CCCCCCCCCCCCCCCCCCC(=O)*; γGlu = O=C(O)[C@H](CCC(=O)[*:2])N[*:1]; AEEA = NCCOCCOCC(=O)O

One assay deals with T1, human calcitonin receptor. In words: ratio of hCTR IC50 to hAmylin-R IC50 (reference: human amylin receptor). As to the method:
The resulting pellet was resuspended, homogenized and centrifuged (20.000 rpm, 15 min) in a buffer containing 20 mM Na-HEPES and 0.1 mM EDTA (pH 7.4, buffer 2). The resulting pellet was resuspended in buffer 2 and protein concentration was measured (BCA protein Assay, Pierce). The homogenate was kept cold during the whole procedure. The membranes were kept at −80° C. until use. The assay was performed in a 384 well Optiplate (PerkinElmer) in a total volume of 40 ul. Membranes were mixed with SPA beads. Final concentration of membranes 35 ng/μL final and SPA beads was 0.05 mg/well. Test-compounds were dissolved in DMSO and further diluted in assay buffer (50 mM Hepes, pH 7.4, 1 mM CaCl2, 5 mM MgCl₂, 0.1% OA and 0.02% Tween20). […] The final mixture was incubated with shaking at 400 rpm for 120 min at 25° C. prior to centrifugation (1500 rpm, 10 min). Samples were analyzed on TopCounter™ (Packard). The IC₅₀ was calculated using (one site binding competition analysis) GraphPad Prism5 as a measure of receptor affinity.
Membranes were prepared in the following way; the cells were rinsed with PBS and incubated with Versene for approximately 5 min before harvesting. The cells were flushed with PBS and the cell-suspension was centrifuged for 5 min at 1000 rpm. Cells were homogenized (Ultrathurrax) in a buffer containing 20 mM Na-HEPES and 10 mM EDTA (pH 7.4) and centrifuged at 20.000 rpm for 15 min. The resulting pellet was resuspended, homogenized and centrifuged (20.000 rpm, 15 min) in a buffer containing 20 mM Na-HEPES and 0.1 mM EDTA (pH 7.4, buffer 2). The resulting pellet was resuspended in buffer 2 and protein concentration was measured (BCA protein Assay, Pierce). The homogenate was kept cold during the whole procedure. The membranes were kept at −80° C. until use. Assay was performed in a 384 well Optiplate (PerkinElmer) in a total volume of 40 ul. Membranes were mixed with SPA beads.
For the molecule B1, the “Ratio hCT/hAmylin binding” value stood at 80.
Take B2: the “Ratio hCT/hAmylin binding” value was 79.6.
Take B3: the “Ratio hCT/hAmylin binding” value was 42.2.
On to B4, for which the “Ratio hCT/hAmylin binding” value was found to be 74.1.

The target in the next assay is T1, human calcitonin receptor. Put plainly: SPA competition on BHK cell membranes, 125I-calcitonin as radioligand (Assay VII). The procedure:
Membranes were prepared in the following way; the cells were rinsed with PBS and incubated with Versene for approximately 5 min before harvesting. The cells were flushed with PBS and the cell-suspension was centrifuged for 5 min at 1000 rpm. Cells were homogenized (Ultrathurrax) in a buffer containing 20 mM Na-HEPES and 10 mM EDTA (pH 7.4) and centrifuged at 20.000 rpm for 15 min. The resulting pellet was resuspended, homogenized and centrifuged (20.000 rpm, 15 min) in a buffer containing 20 mM Na-HEPES and 0.1 mM EDTA (pH 7.4, buffer 2). The resulting pellet was resuspended in buffer 2 and protein concentration was measured (BCA protein Assay, Pierce). The homogenate was kept cold during the whole procedure. The membranes were kept at −80° C. until use. Assay was performed in a 384 well Optiplate (PerkinElmer) in a total volume of 40 ul. Membranes were mixed with SPA beads. Final concentration of membranes 35 ng/μL final and Final concentration of SPA beads was 0.05 mg/well. Test-compounds were dissolved in DMSO and further diluted in assay buffer (50 mM Hepes, pH 7.4, 1 mM CaCl2, 5 mM MgCl₂, 0.1% OA and 0.02% Tween20). […] The final mixture was incubated for 120 min with shaking at 400 rpm at 25° C. prior to centrifugation (1500 rpm, 10 min). Samples were analyzed on TopCounter™ (Packard). The […] was calculated using (one site binding competition analysis) GraphPad Prism5 as a measure of receptor affinity.
As for B1, the half-inhibitory concentration (IC50) came out at 17.2 nM.
With B2, the IC50 amounted to 13.2 nM.
Still for that read-out and setting: the figure for B3 is 2.57 nM.
As to B4, the half-maximal inhibitory concentration (IC50) came to 6.74 nM.
